A word on the Kd: it is the concentration at which binding is half-saturated. Read a high Kd as a looser complex.

The results in this text go back to publication PMC9933118 (Proceedings of the National Academy of Sciences of the …, 2023).

Positions count from the first letter of the chain named. Names may count otherwise.

The target of assay [1] is BCL11A ZF456 (residues 737 to 835) (Homo sapiens, UniProt Q9H165, 15N-labelled in the NMR experiment).
The target of the next assay is GST-ZF456 (Homo sapiens, UniProt Q9H165). The assay can be described thus: pull-down.
Chain of GST-ZF456 (Q9H165 737-835): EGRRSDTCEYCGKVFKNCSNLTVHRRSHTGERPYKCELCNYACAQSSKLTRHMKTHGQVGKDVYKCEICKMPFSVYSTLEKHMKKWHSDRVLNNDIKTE
The target in the next assay is Twin-Strep-tagged ZF456 (Homo sapiens, UniProt Q9H165). The assay can be described thus: SPR. On the technique in general: In SPR one partner is held on a chip, and binding of the other changes the refractive index at the surface.
Chain of Twin-Strep-tagged ZF456 (Q9H165 737-835): as above
A further assay concerns the target ZF456 of BCL11B (Homo sapiens (assumed, as for BCL11A), UniProt Q9C0K0). The assay can be described thus: AlphaScreen or HTRF. A general note: Alpha assays give light when donor and acceptor beads are brought close together.
Assay [2] concerns the target biotinylated ZF456 protein (BCL11A) (Homo sapiens, UniProt Q9H165, biotin (site not stated)). Briefly: AlphaScreen or HTRF.

Chain of biotinylated ZF456 protein (BCL11A) (Q9H165 737-835): as above
Chain of BCL11A ZF456 (residues 737 to 835) (Q9H165 737-835): as above
Chain of ZF456 of BCL11B (Q9C0K0 whole entry, looked up, tested part not stated): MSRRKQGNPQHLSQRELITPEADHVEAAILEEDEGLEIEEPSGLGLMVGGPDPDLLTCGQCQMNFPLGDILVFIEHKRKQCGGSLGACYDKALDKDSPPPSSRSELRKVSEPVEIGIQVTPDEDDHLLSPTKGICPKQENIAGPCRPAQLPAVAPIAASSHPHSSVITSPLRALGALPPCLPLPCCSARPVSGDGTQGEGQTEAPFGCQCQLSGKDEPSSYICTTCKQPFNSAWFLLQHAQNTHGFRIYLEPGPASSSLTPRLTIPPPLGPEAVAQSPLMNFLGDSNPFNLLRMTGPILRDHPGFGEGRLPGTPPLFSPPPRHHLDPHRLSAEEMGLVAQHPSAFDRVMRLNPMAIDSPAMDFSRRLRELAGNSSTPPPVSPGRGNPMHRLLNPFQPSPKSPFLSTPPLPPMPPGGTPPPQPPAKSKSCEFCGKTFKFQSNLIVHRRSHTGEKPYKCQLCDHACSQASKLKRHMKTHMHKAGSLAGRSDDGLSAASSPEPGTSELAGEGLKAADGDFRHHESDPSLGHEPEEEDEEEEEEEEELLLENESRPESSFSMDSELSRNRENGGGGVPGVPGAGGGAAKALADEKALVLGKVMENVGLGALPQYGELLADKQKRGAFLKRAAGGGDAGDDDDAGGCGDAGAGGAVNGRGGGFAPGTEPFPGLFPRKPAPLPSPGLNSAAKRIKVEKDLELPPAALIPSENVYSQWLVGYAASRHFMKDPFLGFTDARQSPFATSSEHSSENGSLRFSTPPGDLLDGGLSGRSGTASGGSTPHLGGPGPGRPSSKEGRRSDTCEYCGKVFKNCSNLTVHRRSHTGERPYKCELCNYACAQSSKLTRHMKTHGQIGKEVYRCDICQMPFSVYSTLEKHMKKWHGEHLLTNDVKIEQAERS

B1: Nb5344 (VHH)
VHH: SGGGLVQAGDSLRLSCAASGSTFSGYAMGWYRQAPGKERELVAAITSSGASTYYADSVRGRFTISRDNAKNTVYLQMNSLKPEDTAVYYCAALDEGYLDYDSWGQGTQVTVSS
In assay [1], B1 registered a Kd of 3420 ± 80 nM.

B2: Nb5344(N74D) (VHH)
VHH: B1 VHH with N68D
With B2, the Kd in assay [1] was 1200 ± 50 nM. This Kd is about 2.9-fold lower than that of the molecule before.

B3: Nb61 (VHH)
VHH: QVQLVESGGGLVQAGGSLRLSCAASGFIFDSYAMGWYRQAPGKERELVAAITSSGSSTYYADSVKGRFTISRDNAKNTVYLQMNSLKPEDTAVYYCAALDYVIDGYWGQGTQVTVSS
B3: in the assay with GST-ZF456, the binding result is given as “binds”.

B4: Nb6101(M45D) (VHH)
VHH: B3 VHH with Q1R, R45D
For B4, in the assay with Twin-Strep-tagged ZF456, the Kd amounted to 157 ± 9 nM and the “fold improvement of binding affinity against Nb6101” value was approximately 6 fold.

B5: Nb6101 (VHH)
VHH: B3 VHH with Q1R, R45M
On to B5, for which the binding result with ZF456 of BCL11B is “no binding”.

B6: Nb6101-14 (VHH)
VHH: RVQLVESGGGLVQAGGSLRLSCAADGFDFSSYAMGWYRQAPGYEDELVAAITASGSYTYYSDSVKGRFTISRDNAKNTVYLQMNSLKPEDTAVYYCAALSYVAEGYWGQGTQVTVSS
Turning to B6, the dissociation constant Kd in assay [2] came out at 26.7 ± 0.7 nM.

B7: Nb6101-22 (VHH)
VHH: B6 VHH with V2M, Y43R, E89D
Regarding B7, the affinity in assay [2], expressed as Kd, was 54.6 ± 0.9 nM.

B8: Nb6101-19 (VHH)
VHH: B6 VHH with S30K, Y43R, S56D, S61A, E89D
In assay [2], B8 gave a Kd of 21.9 ± 0.4 nM.

B9: Nb6101-20 (VHH)
VHH: B6 VHH with S30K
In turn, B9 gave a Kd in assay [2] of 77.2 ± 0.5 nM.
